Measurements: the supplement of paper PMC10567573

B1: TRIM63 (parent)
chain: ANPYWTSRGSSVSMSGGRFRCPTC
B2: TPD52L1 (parent)
chain: ISKKFGDMSYSIRHSISMPAMRNS

Variants of: B1
Assay: protein stability index of a GFP-peptide fusion (GPS, HEK-293T) (PSI 1-6); higher = more stable
Settings: c terminus: a fixed tail appended
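Note: lentivirally expressed fusions sorted by FACS into six bins by GFP to DsRed ratio, PSI derived from sequencing read proportions per bin multiplied by bin number.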

Variant | protein stability index
ANPKWTSRGSSVSMSGGRFRCPTC [Y4K] | 2.09
ANPGWTSRGSSVSMSGGRFRCPTC [Y4G] | 1.36
ANPQWTSRGSSVSMSGGRFRCPTC [Y4Q] | 1.69
ANPDWTSRGSSVSMSGGRFRCPTC [Y4D] | 2.51
ANPTWTSRGSSVSMSGGRFRCPTC [Y4T] | 2.17
ANPSWTSRGSSVSMSGGRFRCPTC [Y4S] | 1.65
ANPAWTSRGSSVSMSGGRFRCPTC [Y4A] | 1.33
ANPWWTSRGSSVSMSGGRFRCPTC [Y4W] | 2.18
ANPMWTSRGSSVSMSGGRFRCPTC [Y4M] | 1.75
ANPFWTSRGSSVSMSGGRFRCPTC [Y4F] | 1.57
ANPCWTSRGSSVSMSGGRFRCPTC [Y4C] | 2.92
ANPRWTSRGSSVSMSGGRFRCPTC [Y4R] | 1.47
ANPIWTSRGSSVSMSGGRFRCPTC [Y4I] | 2.8
ANPEWTSRGSSVSMSGGRFRCPTC [Y4E] | 2.1
ANPVWTSRGSSVSMSGGRFRCPTC [Y4V] | 1.56
ANPNWTSRGSSVSMSGGRFRCPTC [Y4N] | 2.34
ANPYETSRGSSVSMSGGRFRCPTC [W5E] | 2.25
ANPYCTSRGSSVSMSGGRFRCPTC [W5C] | 1.6
ANPYGTSRGSSVSMSGGRFRCPTC [W5G] | 2.45
ANPYHTSRGSSVSMSGGRFRCPTC [W5H] | 2.17
ANPYQTSRGSSVSMSGGRFRCPTC [W5Q] | 2.62
ANPYFTSRGSSVSMSGGRFRCPTC [W5F] | 1.41
ANPYNTSRGSSVSMSGGRFRCPTC [W5N] | 2.44
ANPYMTSRGSSVSMSGGRFRCPTC [W5M] | 2.16
ANPYDTSRGSSVSMSGGRFRCPTC [W5D] | 2.19

Variant | protein stability index
ANPYLTSRGSSVSMSGGRFRCPTC [W5L] | 1.73
ANPYATSRGSSVSMSGGRFRCPTC [W5A] | 1.92
ANPYPTSRGSSVSMSGGRFRCPTC [W5P] | 2.44
ANRYWTSRGSSVSMSGGRFRCPTC [P3R] | 1.84
ANYYWTSRGSSVSMSGGRFRCPTC [P3Y] | 2.38
ANAYWTSRGSSVSMSGGRFRCPTC [P3A] | 2.08
ANFYWTSRGSSVSMSGGRFRCPTC [P3F] | 2.13
ANTYWTSRGSSVSMSGGRFRCPTC [P3T] | 2.08
ANIYWTSRGSSVSMSGGRFRCPTC [P3I] | 2.14
ANEYWTSRGSSVSMSGGRFRCPTC [P3E] | 1.91
ANHYWTSRGSSVSMSGGRFRCPTC [P3H] | 2.82
ANNYWTSRGSSVSMSGGRFRCPTC [P3N] | 1.07
ANGYWTSRGSSVSMSGGRFRCPTC [P3G] | 1.18
ANSYWTSRGSSVSMSGGRFRCPTC [P3S] | 1.36
ANQYWTSRGSSVSMSGGRFRCPTC [P3Q] | 2.2
ANMYWTSRGSSVSMSGGRFRCPTC [P3M] | 1.54
ALPYWTSRGSSVSMSGGRFRCPTC [N2L] | 1.37
ATPYWTSRGSSVSMSGGRFRCPTC [N2T] | 1.73
ARPYWTSRGSSVSMSGGRFRCPTC [N2R] | 2.05
ASPYWTSRGSSVSMSGGRFRCPTC [N2S] | 1.89
AAPYWTSRGSSVSMSGGRFRCPTC [N2A] | 2.08
AQPYWTSRGSSVSMSGGRFRCPTC [N2Q] | 1.23
AIPYWTSRGSSVSMSGGRFRCPTC [N2I] | 3.56
ACPYWTSRGSSVSMSGGRFRCPTC [N2C] | 2.43
AGPYWTSRGSSVSMSGGRFRCPTC [N2G] | 1.84

Variant | protein stability index
AFPYWTSRGSSVSMSGGRFRCPTC [N2F] | 1.6
APPYWTSRGSSVSMSGGRFRCPTC [N2P] | 1.76
AMPYWTSRGSSVSMSGGRFRCPTC [N2M] | 1.6
AHPYWTSRGSSVSMSGGRFRCPTC [N2H] | 2.3
AKPYWTSRGSSVSMSGGRFRCPTC [N2K] | 1.59
AYPYWTSRGSSVSMSGGRFRCPTC [N2Y] | 2.14
AEPYWTSRGSSVSMSGGRFRCPTC [N2E] | 2.51
SNPYWTSRGSSVSMSGGRFRCPTC [A1S] | 2.69
PNPYWTSRGSSVSMSGGRFRCPTC [A1P] | 1.28
ENPYWTSRGSSVSMSGGRFRCPTC [A1E] | 2.31
FNPYWTSRGSSVSMSGGRFRCPTC [A1F] | 2.58
MNPYWTSRGSSVSMSGGRFRCPTC [A1M] | 2.07
HNPYWTSRGSSVSMSGGRFRCPTC [A1H] | 1.88
RNPYWTSRGSSVSMSGGRFRCPTC [A1R] | 2.08
KNPYWTSRGSSVSMSGGRFRCPTC [A1K] | 2.1
LNPYWTSRGSSVSMSGGRFRCPTC [A1L] | 1.89
GNPYWTSRGSSVSMSGGRFRCPTC [A1G] | 1.66
TNPYWTSRGSSVSMSGGRFRCPTC [A1T] | 1.88
NNPYWTSRGSSVSMSGGRFRCPTC [A1N] | 2.18
QNPYWTSRGSSVSMSGGRFRCPTC [A1Q] | 1.49
DNPYWTSRGSSVSMSGGRFRCPTC [A1D] | 1.67
INPYWTSRGSSVSMSGGRFRCPTC [A1I] | 1.53
VNPYWTSRGSSVSMSGGRFRCPTC [A1V] | 2.21

Variants of: B2
Assay: as above
Settings: c terminus: a fixed tail appended

Variant | protein stability index
ISKKFGDMSYSIRISISMPAMRNS [H14I] | 2.73
ISKKFGDMSYSIRRSISMPAMRNS [H14R] | 3.72
ISKKFGDMSYSIRSSISMPAMRNS [H14S] | 1.8
ISKKFGDMSYSIRVSISMPAMRNS [H14V] | 4.3
ISKKFGDMSYRIRHSISMPAMRNS [S11R] | 2.24
ISKKFGDMSYLIRHSISMPAMRNS [S11L] | 2.75
ISKKFGDMSYVIRHSISMPAMRNS [S11V] | 2.49
ISKKFGDMSYAIRHSISMPAMRNS [S11A] | 2.51
ISKKFGDMSYIIRHSISMPAMRNS [S11I] | 2.03
ISKKFGDMSLSIRHSISMPAMRNS [Y10L] | 1.88
ISKKFGDMSVSIRHSISMPAMRNS [Y10V] | 2.94
ISKKFGDMSPSIRHSISMPAMRNS [Y10P] | 2.97
ISKKFGDMSGSIRHSISMPAMRNS [Y10G] | 3.06
ISKKFGDMSISIRHSISMPAMRNS [Y10I] | 2.23
ISKKFGDMSRSIRHSISMPAMRNS [Y10R] | 2.41
ISKKFGDMSMSIRHSISMPAMRNS [Y10M] | 2.37
ISKKFGDMSKSIRHSISMPAMRNS [Y10K] | 2.57
WSKKFGDMSYSIRHSISMPAMRNS [I1W] | 2.2
HSKKFGDMSYSIRHSISMPAMRNS [I1H] | 2.42
QSKKFGDMSYSIRHSISMPAMRNS [I1Q] | 2.88
KSKKFGDMSYSIRHSISMPAMRNS [I1K] | 2.17
